Measured values: the supplement of paper PMC10126150
± gives the standard deviation of the averaged measurements.

test system: ATP; experiment: switch fluorescence ratio, 500 uM ATP over buffer (Cy3 cluster intensity, sum of 5 cycles each) (fold (ratio)); higher = stronger signal-on switching upon ATP binding; sequences stand for … in TCGTCGGCAGCGTCAGATGTGTATAAGAGACAGTTTTTTTTTTTTTTTTTTTTTTTTT…TC; conditions: aptamer strand: ATP DNA aptamer (quencher-CACCTGGGGGAGTATTGCGGAGGAAGG + anchor), 100 nM annealed; ATP concentration: 500 uM
Outline: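 Clusters carrying Cy3-labelled switching strands on a modified Illumina MiSeq flow-cell were annealed to 100 nM quencher-labelled ATP aptamer and imaged in selection buffer. They were imaged again after 15 min with 500 uM ATP at 22 °C, over five buffer/ATP cycles with NaOH stripping and re-annealing in between. For each cluster, the fluorescence ratio is the summed Cy3 intensity of the target cycles divided by that of the buffer cycles, averaged per switch-domain sequence. Clusters outside 100-1000 RFU were left out.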
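Further: ATP exposure 15 min at 22 °C before imaging.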

| Sequence | switch fluorescence ratio |
| --- | --- |
| TTGCTTTGTC | 0.994 ± 0.013 |
| TTGCTTTTAT | 0.991 ± 0.024 |
| TTGGAAAAGG | 1.02 ± 0.029 |
| TTGGAAAATT | 1.21 ± 0.35 |
| TTGGAAATTG | 1.01 ± 0.019 |
| TTGGAATATT | 0.9812 ± 0.0027 |
| TTGGACATAT | 1.008 ± 0.0039 |
| TTGGACATGG | 0.963 ± 0.012 |
| TTGGACCATG | 1.01 ± 0.038 |
| TTGGACGGTT | 1 ± 0.015 |
| TTGGACTAGC | 0.981 ± 0.033 |
| TTGGACTAGT | 1.018 ± 0.0023 |
| TTGGAGAAGG | 0.998 ± 0.018 |
| TTGGAGCCCT | 1.069 ± 0.0022 |
| TTGGAGGGGT | 1.09 ± 0.15 |
| TTGGAGTCCC | 0.99 ± 0.022 |
| TTGGAGTTCG | 0.982 ± 0.013 |
| TTGGAGTTG | 1.02 ± 0.048 |
| TTGGATGGGG | 0.972 ± 0.017 |
| TTGGATTGGC | 0.978 ± 0.023 |
| TTGGATTTAA | 1.02 ± 0.012 |
| TTGGCAAGCT | 1.06 ± 0.072 |
| TTGGCACGTG | 0.985 ± 0.061 |
| TTGGCAGATG | 1 ± 0.043 |
| TTGGCATATC | 1.89 ± 0.76 |

| Sequence | switch fluorescence ratio |
| --- | --- |
| TTGGCATGAG | 0.987 ± 0.02 |
| TTGGCATGCG | 1.01 ± 0.021 |
| TTGGCCATCG | 0.954 ± 0.039 |
| TTGGCCATGA | 0.976 ± 0.029 |
| TTGGCCGGG | 0.9643 ± 0.009 |
| TTGGCGCGCA | 1.023 ± 0.0016 |
| TTGGCGCTGG | 0.993 ± 0.026 |
| TTGGCTAATA | 1.01 ± 0.018 |
| TTGGCTACTG | 0.962 ± 0.065 |
| TTGGCTAGTT | 1 ± 0.029 |
| TTGGCTGTTT | 1.016 ± 0.01 |
| TTGGCTTTGA | 0.9893 ± 0.0097 |
| TTGGGAAATA | 1.01 ± 0.024 |
| TTGGGAACTA | 1.01 ± 0.02 |
| TTGGGAATA | 0.988 ± 0.035 |
| TTGGGAATTC | 0.98044 ± 0.00048 |
| TTGGGACTAC | 1.02 ± 0.036 |
| TTGGGACTTG | 0.999 ± 0.054 |
| TTGGGAGATT | 0.971 ± 0.024 |
| TTGGGAGCGT | 1.01 ± 0.017 |
| TTGGGAGCTG | 1.021 ± 0.0068 |
| TTGGGAGGGT | 0.999 ± 0.029 |
| TTGGGATTCG | 1.01 ± 0.013 |
| TTGGGATTTA | 0.95 ± 0.015 |
| TTGGGCAGAG | 0.993 ± 0.043 |

| Sequence | switch fluorescence ratio |
| --- | --- |
| TTGGGCGTCG | 0.995 ± 0.047 |
| TTGGGCTCTA | 1.002 ± 0.0012 |
| TTGGGCTGCT | 0.9743 ± 0.00051 |
| TTGGGGAAGT | 0.994 ± 0.039 |
| TTGGGGACGT | 1.01 ± 0.042 |
| TTGGGGAGAA | 0.98 ± 0.035 |
| TTGGGGCAGG | 1.1 ± 0.07 |
| TTGGGGCATG | 0.971 ± 0.011 |
| TTGGGGCTAG | 1.02 ± 0.026 |
| TTGGGGGAAT | 0.992 ± 0.026 |
| TTGGGGGACC | 0.998 ± 0.025 |
| TTGGGGGCAG | 1.01 ± 0.018 |
| TTGGGGGGGG | 1.01 ± 0.056 |
| TTGGGGGGT | 1.06 ± 0.012 |
| TTGGGGGTCA | 1.01 ± 0.023 |
| TTGGGGGTCG | 1.02 ± 0.034 |
| TTGGGGGTGT | 1.03 ± 0.1 |
| TTGGGGTACG | 1.01 ± 0.021 |
| TTGGGGTCAG | 1 ± 0.038 |
| TTGGGGTCCA | 0.977 ± 0.015 |
| TTGGGGTCGT | 0.974 ± 0.03 |
| TTGGGGTGGA | 0.99 ± 0.018 |
| TTGGGGTTGG | 1.01 ± 0.03 |
| TTGGGTAGAT | 0.988 ± 0.025 |
| TTGGGTAGGG | 1.01 ± 0.051 |

| Sequence | switch fluorescence ratio |
| --- | --- |
| TTGGGTCATG | 1.036 ± 0.0048 |
| TTGGGTGTTA | 0.9907 ± 0.0021 |
| TTGGGTTAGT | 1.01 ± 0.019 |
| TTGGGTTCAA | 1.4 ± 0.52 |
| TTGGTACATT | 0.99163 ± 8.4e-05 |
| TTGGTAGGAG | 0.985 ± 0.042 |
| TTGGTAGTCT | 1.04 ± 0.012 |
| TTGGTAGTGG | 0.977 ± 0.028 |
| TTGGTAGTTG | 0.954 ± 0.011 |
| TTGGTATTGA | 0.99 ± 0.098 |
| TTGGTCGGG | 0.98 ± 0.044 |
| TTGGTCTTAC | 1.06 ± 0.096 |
| TTGGTCTTGA | 0.994 ± 0.018 |
| TTGGTGACGG | 0.986 ± 0.013 |
| TTGGTGAGGG | 0.978 ± 0.022 |
| TTGGTGGAAG | 1.02 ± 0.0057 |
| TTGGTGGACA | 0.976 ± 0.026 |
| TTGGTGTAGC | 0.972 ± 0.026 |
| TTGGTGTGAC | 1.05 ± 0.065 |
| TTGGTGTTCA | 0.996 ± 0.013 |
| TTGGTTAAAT | 1.01 ± 0.026 |
| TTGGTTAATG | 1.01 ± 0.019 |
| TTGGTTCCAT | 1.02 ± 0.017 |
| TTGGTTCGAC | 0.962 ± 0.04 |
| TTGGTTCGTT | 0.994 ± 0.025 |

| Sequence | switch fluorescence ratio |
| --- | --- |
| TTGGTTGACG | 0.963 ± 0.041 |
| TTGGTTGCG | 1.02 ± 0.026 |
| TTGGTTGTCG | 1.02 ± 0.019 |
| TTGGTTTACT | 1.22 ± 0.3 |
| TTGGTTTCCC | 1.01 ± 0.02 |
| TTGGTTTTGC | 0.99 ± 0.019 |
| TTGGTTTTT | 0.993 ± 0.019 |
| TTGTAAGGGT | 0.978 ± 0.017 |
| TTGTAATTAC | 1.3 ± 0.44 |
| TTGTAATTCG | 1.02 ± 0.05 |
| TTGTAATTTT | 0.991 ± 0.017 |
| TTGTACGGGG | 0.985 ± 0.03 |
| TTGTACTATC | 1.01 ± 0.063 |
| TTGTAGCTGT | 1.12 ± 0.13 |
| TTGTAGGGAT | 1.43 ± 0.77 |
| TTGTAGGGGG | 1.17 ± 0.4 |
| TTGTAGTTAT | 1.09 ± 0.16 |
| TTGTATATAT | 1.49 ± 0.81 |
| TTGTATGGGA | 1.001 ± 0.0069 |
| TTGTATGTGT | 0.983 ± 0.032 |
| TTGTATTGCC | 1.02 ± 0.018 |
| TTGTATTTGC | 0.976 ± 0.031 |
| TTGTCAGAGT | 1.001 ± 0.0015 |
| TTGTCATCTG | 1.01 ± 0.012 |
| TTGTCCCGTG | 1.01 ± 0.026 |

| Sequence | switch fluorescence ratio |
| --- | --- |
| TTGTCGCTGT | 1.14 ± 0.19 |
| TTGTCGGGTT | 1.01 ± 0.018 |
| TTGTCGTCTC | 0.986 ± 0.041 |
| TTGTCTGGGC | 0.984 ± 0.032 |
| TTGTGAAGCA | 1.025 ± 0.0054 |
| TTGTGAAGGT | 1.05 ± 0.044 |
| TTGTGAGTGC | 0.91 ± 0.023 |
| TTGTGATAGA | 1.06 ± 0.052 |
| TTGTGATCTT | 0.961 ± 0.02 |
| TTGTGATGGA | 0.9896 ± 0.008 |
| TTGTGATTCT | 0.97032 ± 0.00028 |
| TTGTGATTGT | 1.01 ± 0.016 |
| TTGTGCAAGT | 1.01 ± 0.013 |
| TTGTGCGACT | 0.98 ± 0.019 |
| TTGTGCTATT | 1.26 ± 0.32 |
| TTGTGGAATT | 0.966 ± 0.02 |
| TTGTGGATG | 0.962 ± 0.017 |
| TTGTGGGG | 0.992 ± 0.021 |
| TTGTGGGGCG | 0.986 ± 0.068 |
| TTGTGGGTCC | 1.013 ± 0.0093 |
| TTGTGGGTGT | 1.004 ± 0.0082 |
| TTGTGGTATT | 0.99 ± 0.0084 |
| TTGTGGTCGT | 0.9859 ± 0.0074 |
| TTGTGGTGTG | 0.984 ± 0.049 |
| TTGTGTCAGT | 0.9885 ± 0.0045 |

| Sequence | switch fluorescence ratio |
| --- | --- |
| TTGTGTGACT | 0.991 ± 0.04 |
| TTGTGTGCAG | 0.959 ± 0.053 |
| TTGTGTGTGG | 0.976 ± 0.021 |
| TTGTGTGTGT | 0.993 ± 0.019 |
| TTGTGTTAGG | 0.994 ± 0.031 |
| TTGTGTTGGC | 1.02 ± 0.038 |
| TTGTGTTTCG | 0.967 ± 0.028 |
| TTGTGTTTTA | 0.998 ± 0.02 |
| TTGTTAAATC | 1.02 ± 0.038 |
| TTGTTAAGAG | 0.986 ± 0.043 |
| TTGTTAAGTG | 1.02 ± 0.1 |
| TTGTTACATC | 0.941 ± 0.016 |
| TTGTTACATG | 1.012 ± 0.0051 |
| TTGTTACTTT | 1 ± 0.017 |
| TTGTTAGAGT | 0.9809 ± 0.0019 |
| TTGTTAGTTG | 1.01 ± 0.045 |
| TTGTTATAGA | 0.998 ± 0.024 |
| TTGTTCCGTT | 0.9874 ± 0.0066 |
| TTGTTCTGGA | 0.977 ± 0.056 |
| TTGTTGAGTC | 1 ± 0.032 |
| TTGTTGAGTG | 0.968 ± 0.028 |
| TTGTTGCGGA | 0.997 ± 0.011 |
| TTGTTGCGGC | 1.01 ± 0.042 |
| TTGTTGTCTA | 0.995 ± 0.015 |
| TTGTTGTTGT | 0.988 ± 0.021 |

| Sequence | switch fluorescence ratio |
| --- | --- |
| TTGTTTAGGC | 1.1 ± 0.027 |
| TTGTTTGAGG | 0.9815 ± 0.004 |
| TTGTTTGGGA | 1.02 ± 0.034 |
| TTGTTTGGTA | 1 ± 0.013 |
| TTGTTTGTAT | 0.9647 ± 0.0073 |
| TTGTTTGTT | 0.994 ± 0.019 |
| TTGTTTTCAC | 1.28 ± 0.4 |
| TTGTTTTCGT | 1.01 ± 0.039 |
| TTGTTTTGTC | 0.975 ± 0.065 |
| TTGTTTTTCA | 0.999 ± 0.027 |
| TTTAAAAACC | 1.01 ± 0.034 |
| TTTAAAATTG | 0.989 ± 0.042 |
| TTTAAACAA | 1 ± 0.032 |
| TTTAAACGCT | 0.997 ± 0.036 |
| TTTAAACGGG | 1 ± 0.011 |
| TTTAAAGCTG | 1.06 ± 0.064 |
| TTTAAATATT | 1.02 ± 0.031 |
| TTTAAATGGG | 1 ± 0.021 |
| TTTAACACCA | 1.029 ± 0.0075 |
| TTTAACAGGG | 1.03 ± 0.069 |
| TTTAACTAGT | 1 ± 0.018 |
| TTTAAGACC | 0.979 ± 0.015 |
| TTTAAGATGG | 1.02 ± 0.02 |
| TTTAAGATTA | 0.9843 ± 0.0063 |
| TTTAAGCATT | 1.19 ± 0.066 |
